Tests used:
[1] = target: T1, human CD3 on human T cells (human, UniProt P07766 23-207); test: flow cytometry, primary human T cells, AF647 anti-human IgG F(ab')2 secondary
T1 construct: Native TCR-CD3 complex on cells; also called primary human T cells; human pan T cells
Method: The 80 mutant clones were assayed for binding to primary human T cells (FIGS. 7 and 8). […] The plates were centrifuged at 300×g for 5 minutes to pellet the cells and the supernatant removed. The plate was gently vortexed briefly to resuspend the cells.

[2] = target: T2, Cyno CD33 full length (cynomolgus monkey); test: flow cytometry on HEK293F cells expressing cyno CD33
T2 construct: also called cyCD33

[3] = target: T3, Human CD33 ECD-HSA (human); test: ProteOn SPR, mAb captured on anti-human Fc, antigen as analyte
T3 construct: CD33 ECD fused at the C-terminus to monomeric HSA (C58S) and a six-histidine tag; also called C33W2; huCD33 ECD-HSA
Method: (§1) The panel of mAbs was then further characterized for full affinity analysis as well as epitope binning. The binding of anti-CD33 mAbs to recombinant human CD33 ECD-HSA (C33W2) and cyno CD33 ECD-HSA (C33W1) was measured by ProteOn SPR (Bio-Rad). […] Different mAbs were captured on the anti-human Fc IgG surface at 0.25 or 0.5 μg/ml (160-300 RU) in vertical ligand orientation, with the 6th ligand channel as no ligand surface control. Human and cyno CD33-HSA proteins at 0.3 μM concentration in 3-fold dilution series of 5 concentrations flew in as analyte to bind to captured mAbs in the horizontal orientation. A buffer sample was also injected in the 6th channel to monitor the dissociation of captured mAb and baseline stability. […] The raw biding data were processed by double referencing after subtracting the response data from: 1) the inter-spot to correct for the non-specific interactions between the Ag and the empty chip surface; 2) the buffer channel to correct for baseline drifting due to the dissociation of captured mAb surface over time. The processed data at all antigen concentrations for each mAb were globally fit to a 1:1 simple Langmuir binding model to extract estimates of the kinetic (kₒₙ, koff) and affinity (Kd) constants.

[4] = target: T4, Cyno CD33 ECD-HSA (cynomolgus monkey); test: as above
T4 construct: Cyno CD33 ECD fused to HSA and a six-histidine tag; also called C33W1
Method: as §1

[5] = target: T5, Human CD33 full length (human, UniProt P20138 18-364); test: flow cytometry on HEK293F cells expressing human CD33
T5 construct: also called huCD33
T5 sequence (P20138 18-364 limits assumed): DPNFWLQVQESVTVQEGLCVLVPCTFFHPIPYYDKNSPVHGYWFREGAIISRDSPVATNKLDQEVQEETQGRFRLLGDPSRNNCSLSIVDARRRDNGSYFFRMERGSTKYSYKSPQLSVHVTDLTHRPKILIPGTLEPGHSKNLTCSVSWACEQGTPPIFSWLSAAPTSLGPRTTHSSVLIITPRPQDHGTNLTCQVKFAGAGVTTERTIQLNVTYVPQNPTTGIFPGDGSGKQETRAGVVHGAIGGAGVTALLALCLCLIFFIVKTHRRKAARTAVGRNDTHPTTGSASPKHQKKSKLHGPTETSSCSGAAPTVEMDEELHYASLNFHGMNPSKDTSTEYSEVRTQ

[6] = target: T6, Human CD33-C2-HSA (human); test: SPRi off-rate screen (IBIS MX96)
T6 construct: C2 domain of human CD33 fused to HSA; also called C33W4; huCD33-C2-HSA

[7] = target: T3, Human CD33 ECD-HSA; test: SPRi off-rate screen (IBIS MX96)
[8] = target: T7, TMEW1 (TMEFF2-FL-ECD-His-Avitag) (human, UniProt Q9UIK5 41-320); test: Biacore 8K SPR, mAb captured on anti-human Fc, single cycle kinetics
T7 construct: Human TMEFF2 ECD with C-terminal G3S, 6xHis tag and Avi-tag, all in the entry; also called TMEFF2 ECD
T7 sequence: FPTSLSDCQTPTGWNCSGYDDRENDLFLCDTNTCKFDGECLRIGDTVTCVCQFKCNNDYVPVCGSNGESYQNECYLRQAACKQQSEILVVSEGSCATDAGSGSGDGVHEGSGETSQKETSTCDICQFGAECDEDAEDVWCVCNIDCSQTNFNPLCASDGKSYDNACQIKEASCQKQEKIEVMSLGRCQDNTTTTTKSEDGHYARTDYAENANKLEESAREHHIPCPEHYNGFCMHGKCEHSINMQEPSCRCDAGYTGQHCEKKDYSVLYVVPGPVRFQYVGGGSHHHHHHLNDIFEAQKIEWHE
Method: The binding of anti-TMEFF2 mAbs to human TMEFF2 ECD was measured by Biacore 8K SPR. The format of the assay was to capture the mAbs using a high density anti-human Fc surface, then inject human TMEFF2 concentration titration using a single cycle kinetics method. […] The mAbs were captured on the anti-human Fc IgG surface at 0.5 μg/ml (˜200-300 RU) on flow cell 2. The running buffer was then changed to HBSP+100 ug/ml BSA. TMEFF2 ECD at 30 nM concentration in 3-fold dilution series was injected from low to high concentration using single cycle kinetics method. The off-rate was monitored 30 minutes after the last or highest concentration injection and then the surface was regenerated using 0.8% phosphoric acid (Bio-Rad). A buffer blank run, capturing the same mAbs and using the same conditions of sample run was also completed. The raw data were processed by subtracting two sets of reference data from the response data: 1) reference flow cell 1 subtracted from sample flow cell 2 and 2) buffer blank run from experimental run. The processed data at all concentrations for each mAb were globally fit to a 1:1 simple Langmuir binding model to extract estimates of the kinetic (kon, koff) and affinity (KD) constants.

[9] = target: T8, human TMEFF2 extracellular domain (ECD) (human, UniProt Q9UIK5 41-320); test: KinExA solution equilibrium affinity
T8 construct: also called TMEFF2-ECD
T8 sequence: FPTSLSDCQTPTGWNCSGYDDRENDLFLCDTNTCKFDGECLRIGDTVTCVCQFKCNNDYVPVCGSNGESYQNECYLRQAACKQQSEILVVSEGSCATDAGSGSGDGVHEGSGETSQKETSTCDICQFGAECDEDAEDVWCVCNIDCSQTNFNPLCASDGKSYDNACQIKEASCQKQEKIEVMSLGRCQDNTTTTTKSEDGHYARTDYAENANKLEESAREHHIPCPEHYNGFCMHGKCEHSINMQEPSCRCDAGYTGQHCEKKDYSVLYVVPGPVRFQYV
Method: Serial dilutions of human TMEFF2 extracellular domain (ECD) were prepared with a constant concentration of anti-TMEFF2 mAb in 10 mM HEPES, 150 mM NaCL, 0.05% surfactant P20, pH 7.4, 0.1% BSA, and 0.02% NaN3. The reaction mixtures were incubated at RT until the binding interactions reached equilibrium. The duration of the incubation was determined using KinExA software simulation. Beads were prepared by direct covalent immobilization of TMEFF2-ECD by amine-coupling on pre-activated beads composed of bis-acrylamide/azlactone copolymer (Pierce Biotechnology, Inc.). After incubation the samples were run on the KinExA instrument to assess free antibody in the mixture by passing the mixture though the TMEFF2-modified beads, and detecting the captured antibody using a fluorescently labeled secondary antibody. The data was fit with a 1:1 binding model using the KinExA Pro software.

[10] = target: T9, rh-CD19 (UniProt P15391 20-291, limits assumed); test: Biacore 8K non-specific binding test, antibody over immobilised protein
T9 sequence (looked up): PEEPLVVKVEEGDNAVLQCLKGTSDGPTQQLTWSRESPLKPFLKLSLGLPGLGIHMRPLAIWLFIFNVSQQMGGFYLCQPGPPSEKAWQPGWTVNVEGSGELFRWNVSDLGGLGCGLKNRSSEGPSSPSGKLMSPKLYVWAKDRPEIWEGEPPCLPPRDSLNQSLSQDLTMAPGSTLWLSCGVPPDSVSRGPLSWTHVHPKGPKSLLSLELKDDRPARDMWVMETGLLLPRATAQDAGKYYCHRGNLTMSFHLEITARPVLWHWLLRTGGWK
Method: (§2) Non-specific binding of the lead molecule to unrelated surfaces is determined by biosensor technology (Biacore 8K). Antibody is passed over SPR surfaces coated with unrelated proteins. […] Irrelevant surfaces include negatively charged protein (Soy Trypsin Inhibitor), positively charged protein (Lysozyme and β-defensin), hydrophobic (Rh-integrin a4b7), human IgG, sticky protein (Rh-CD19). Proper controls are used in this experiment. Lead is flown over two surfaces, one is a blank and the other has a molecule directly immobilized. The response unit (RU) level is determined by subtracting the blank RU from the test surface RU. […] A response unit ≥100 predicts high risks for non-specific binding to charged/hydrophobic/IgG surfaces which would create challenges during manufacturing and translate to poor PK properties.

[11] = target: Lysozyme; test: as above
Chain of Lysozyme (P00698 19-147): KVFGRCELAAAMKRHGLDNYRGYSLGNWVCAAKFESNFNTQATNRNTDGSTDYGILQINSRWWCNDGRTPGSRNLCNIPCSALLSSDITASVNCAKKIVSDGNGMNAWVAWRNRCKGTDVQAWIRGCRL
Method: as §2

[12] = target: Human IgG; test: as above
Method: as §2

[13] = target: T10, B-Defensin-3; test: as above
T10 construct: also called β-defensin
T10 sequence (P81534 23-67): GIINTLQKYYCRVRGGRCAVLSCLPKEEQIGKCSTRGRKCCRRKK
Method: as §2

[14] = target: rh-Integrin a4b7 (UniProt P13612 34-977; P26010 20-723, limits assumed); test: as above
Method: as §2

[15] = target: T11, N-terminal CD3ε peptide; test: Biacore 8K SPR, antibody captured on anti-human Ig, peptide as analyte
T11 construct: domain: N-terminal CD3ε peptide
T11 sequence (P07766 22-48): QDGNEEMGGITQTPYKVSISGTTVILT
Method: Kinetic rate constants were measured by SPR performed using Biacore 8K (GE Healthcare) and anti-human Fc biosensor surfaces. Anti-human immunoglobulin antibodies were covalently coupled to the surface of a CM4 sensor chip (GE Healthcare). Antibodies of interest were captured on the anti-human immunoglobulin sensor chip, followed by injection of N-terminal CD3ε peptide at various concentrations in HEPES Buffered Saline containing 0.05% surfactant P20 (Tween™ 20) and 100 ug/mL BSA. The surface was regenerated with 2 pulses injections of 30 μL of 0.8% phosphoric acid at 100 μL/min. Data reported is the difference in SPR signal between the flow cell containing the captured antibody and a reference cell without captured antibody. Additional instrumental contributions to the signal were removed by subtraction of the data from the blank injection from the reference-subtracted signal. The data were analyzed by fitting association and dissociation phases at all concentrations (global fit) with a 1:1 binding model using the Biaevaluation software (Biacore, Inc.). Data is reported as average+95% CI (Confidence Interval) which is calculated by t value for 95% CI*stdev/square root of the number of replicates.

T1 sequence (P07766 23-207 limits assumed): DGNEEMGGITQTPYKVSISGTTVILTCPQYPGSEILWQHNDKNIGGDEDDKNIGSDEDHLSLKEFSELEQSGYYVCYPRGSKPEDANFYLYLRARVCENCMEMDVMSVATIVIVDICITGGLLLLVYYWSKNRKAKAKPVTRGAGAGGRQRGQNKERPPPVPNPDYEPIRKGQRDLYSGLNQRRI

B1: D43G/V48L/L49M/L50I/S62N/Q85E/H89Y LC (with WT HC) (antibody, V domains shown)
VH: QVQLQQSGPRLVRPSQTLSLTCAISGDSVFNNNAAWSWIRQSPSRGLEWLGRTYYRSKWLYDYAVSVKSRITVNPDTSRNQFTLQLNSVTPEDTALYYCARGYSSSFDYWGQGTLVTVSS
VL: QSALTQPASVSGSPGQSITISCTGTSSNIGTYKFVSWYQQHPGKAPKLMIYEVSKRPSGVSNRFSGSKSGNTASLTISGLQAEDEADYYCCSYAGSGTLLFGGGTKLTVL
notes: also called BLW-2E6 variant CD3H219/CD3L136
B1: no binding (tested: 50 nM) [1].

B2: C33B912 (antibody, V domains shown)
VH: EVQLVESGGGLVQPGRSLRLSCAASGFTFDDYAMHWVRQAPGKGLEWVSGIGWSGGSIVYADSVKGRFTISRDNAKNSLYLQMNSLRAEDTALYYCAKDSPYGDFFDYWGQGTLVTVSS
VL: DIVMTQSPDSLAVSLGERATINCKSSQTVFYSSNNKNYLAWYQQKPGQPPKLLISWASTRKSGVPDRFSGSGSGTDFTLTVSSLQAEDVAVYYCQHYYSTPYTFGQGTKLEIK
notes: OMNIMouse-derived anti-CD33 mAb; also called C33H252/C33L118; C33F550
With B2 the “MFI at 0 nM (background)” value [2] was 125 MFI, the “MFI at 0.6 nM” value [2] was 1730 MFI and the “MFI at 6 nM” value [2] was 7270 MFI. The “MFI at 60 nM” value [2] was 15100 MFI, the Kd [3] was 0.0302 nM and the koff [3] was 4.29e-05 s⁻¹. It also gave a kon [3] of 1.42e+06 M⁻¹ s⁻¹, a Kd [4] of 0.433 nM and a koff [4] of 0.00065 s⁻¹. For the same binder, the kon [4] was 1.5e+06 M⁻¹ s⁻¹, the “MFI at 0 nM (background)” value [5] was 150 MFI and the “MFI at 0.6 nM” value [5] was 15700 MFI. For the same binder, the “MFI at 6 nM” value [5] was 101000 MFI, the “MFI at 60 nM” value [5] was 237000 MFI and the koff [6] was 6.68e-05 s⁻¹. The koff [7] was 1.29e-05 s⁻¹.

B3: TMEB762 (antibody, human IgG4 S228P, kappa, F234A L235A, V domains shown)
VH: EVQLLESGGGLVQPGGSLRLSCAASGFTFSSYSMSWVRQAPGKGLEWVSVISGSGGFTDYADSVKGRFTISRDNSKNTLYLQMNSLRAEDTAVYYCARMPLNSPHDYWGQGTLVTVSS
VL: DIQMTQSPSSLSASVGDRVTITCRASQGIRNDLGWYQQKPGKAPKLLIYAASSLQSGVPSRFSGSGSGTDFTLTISSLQPEDFATYYCLQDYNYPLTFGGGTKVEIKR
notes: IgG4 PAA anti-TMEFF2; re-engineered variant of TMEB675; also called TMEH459/DL3L129
With B3 the Kd [8] was 0.32 nM, the koff [8] was 0.000174 s⁻¹ and the kon [8] was 541000 M⁻¹ s⁻¹. The Kd [9] was 0.0461 nM, the “response units (RU)” value [10] was 3.3 RU and the “response units (RU)” value [11] was 4.6 RU. For the same binder, the “response units (RU)” value [12] was 8.4 RU, the “response units (RU)” value [13] was 4.1 RU and the “response units (RU)” value [14] was 0 RU.

B4: TMCB150 (bispecific antibody, human IgG4 S228P, kappa, lambda, F234A L235A)
heavy 1: not shown
light 1: not shown
heavy 2: QVQLQQSGPRLVRPSQTLSLTCAISGDSVFNNNAAWSWIRQSPSRGLEWLGRTYYRSKWLYDYAVSVKSRITVNPDTSRNQFTLQLNSVTPEDTALYYCARGYSSSFDYWGQGTLVTVSSASTKGPSVFPLAPCSRSTSESTAALGCLVKDYFPEPVTVSWNSGALTSGVHTFPAVLQSSGLYSLSSVVTVPSSSLGTKTYTCNVDHKPSNTKVDKRVESKYGPPCPPCPAPEAAGGPSVFLFPPKPKDTLMISRTPEVTCVVVDVSQEDPEVQFNWYVDGVEVHNAKTKPREEQFNSTYRVVSVLTVLHQDWLNGKEYKCKVSNKGLPSSIEKTISKAKGQPREPQVYTLPPSQEEMTKNQVSLTCLVKGFYPSDIAVEWESNGQPENNYKTTPPVLDSDGSFLLYSKLTVDKSRWQEGNVFSCSVMHEALHNHYTQKSLSLSLGK
light 2: QSALTQPASVSGSPGQSITISCTGTSSNIGTYKFVSWYQQHPDKAPKVLLYEVSKRPSGVSSRFSGSKSGNTASLTISGLQAEDQADYHCVSYAGSGTLLFGGGTKLTVLGQPKAAPSVTLFPPSSEELQANKATLVCLISDFYPGAVTVAWKADSSPVKAGVETTTPSKQSNNKYAASSYLSLTPEQWKSHRSYSCQVTHEGSTVEKTVAPTECS
notes: IgG4 PAA bispecific by Fab-arm exchange; also called TMEB762 x CD3B376
B4 showed a Kd [9] of 0.0636 nM, a Kd [15] of 28.7 nM and a koff [15] of 0.00103 s⁻¹. The kon [15] was 35700 M⁻¹ s⁻¹, the “response units (RU)” value [10] was 3.4 RU and the “response units (RU)” value [11] was 4.2 RU. For the same binder, the “response units (RU)” value [12] was 7.5 RU, the “response units (RU)” value [13] was 6.4 RU and the “response units (RU)” value [14] was 0 RU.

Reference: patent US20230322924A1 (Janssen / Centocor, published 2023)
